Test results as given in US20260274928A1.

Target: 13-strain panel of SARS-CoV-2 variant lineages (RBDs)
Test: SPR, Fab on captured His-AviTag RBD, single-cycle kinetics

B1: S2V29-v37.2 Fab (Fab, V domains shown)
VH: EVQLVESGGSVVQPGRALRLSCAASGITFSSFGMYWVRQAPGKGLEWLGYIAYDGSDTYYADSVKGRFTISRDNSKNTLYLQMNSLRIEDTAVYYCAKDYYPLLSYYYGLDVWGQGTTVTVSS
VL: QSVLTQPRSVSGSPGQSVTISCTGTSSDVGAYNYVSWYQQHPGKAPKFMIYDVDQRPSGVPDRFSGSKSGNTASLIISGLQAEDEADYYCSSYAGSYIWVFGGGTQLTVL
  Kd: 50 to 5000 pM
  median KD: 260 pM
